In paper PMC2141705:

Target: calnexin (mouse (endogenous in AtT-20)) (UniProt P35564)
Assay: co-IP

Sequence of UniProt P35564 (P35564 21-591): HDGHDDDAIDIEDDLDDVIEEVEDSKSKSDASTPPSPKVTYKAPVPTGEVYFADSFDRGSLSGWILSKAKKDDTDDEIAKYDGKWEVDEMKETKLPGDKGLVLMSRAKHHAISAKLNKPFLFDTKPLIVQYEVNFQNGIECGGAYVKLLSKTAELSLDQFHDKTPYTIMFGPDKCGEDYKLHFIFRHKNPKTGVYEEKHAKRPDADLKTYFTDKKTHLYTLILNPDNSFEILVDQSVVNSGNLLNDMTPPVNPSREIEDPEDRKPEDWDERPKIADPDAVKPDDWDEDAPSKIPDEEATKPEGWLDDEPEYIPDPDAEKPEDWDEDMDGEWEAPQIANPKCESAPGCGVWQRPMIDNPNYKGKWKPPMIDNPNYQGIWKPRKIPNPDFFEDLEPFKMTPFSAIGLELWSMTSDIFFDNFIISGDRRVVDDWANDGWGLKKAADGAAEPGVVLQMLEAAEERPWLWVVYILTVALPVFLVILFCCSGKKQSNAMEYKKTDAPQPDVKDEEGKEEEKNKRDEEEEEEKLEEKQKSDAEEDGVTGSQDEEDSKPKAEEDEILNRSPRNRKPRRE

percent of total radiolabeled proPC2 coimmunoprecipitated: 5%
Substance: proPC2 (proenzyme form of prohormone convertase 2) (from UniProt P28841 25-637)
